B1: Phosphoglycerate kinase, P00560 (parent)
chain: MSLSSKLSVQDLDLKDKRVFIRVDFNVPLDGKKITSNQRIVAALPTIKYVLEHHPRYVVLASHLGRPNGERNEKYSLAPVAKELQSLLGKDVTFLNDCVGPEVEAAVKASAPGSVILLENLRYHIEEEGSRKVDGQKVKASKEDVQKFRHELSSLADVYINDAFGTAHRAHSSMVGFDLPQRAAGFLLEKELKYFGKALENPTRPFLAILGGAKVADKIQLIDNLLDKVDSIIIGGGMAFTFKKVLENTEIGDSIFDKAGAEIVPKLMEKAKAKGVEVVLPVDFIIADAFSADANTKTVTDKEGIPAGWQGLDNGPESRKLFAATVAKAKTIVWNGPPGVFEFEKFAAGTKALLDEVVKSSAAGNTVIIGGGDTATVAKKYGVTDKISHVSTGGGASLELLEGKELPGVAFLSEKK

The variants in this data set derive from B1. The conditions noted are these: Saccharomyces cerevisiae (strain ATCC 204508 / S288c), pH 7.5, 25 °C, GdnHCl, Sodium phosphate 20 mM, structure 3PGK, whole UniProt chain shown.

“And” between values parts separate entries of the source, which are not always exact repeats. Equal entries are not always repeated.

As for MSLSSKLSVQDLDLKDKRVFIRVDFNVPLDGKKITSNQRIVAALPTIKYVLEHHPRYVVLASHLGRPNGERNEKYSLAPVAKELQSLLGKDVTFLNDCVGPEVEAAVKASAPGSVILLENLRYHIEEEGSRKVDGQKVKASKEDVQKFRHELSSLADVYINDAFGTAHRAHSSMVGFDLPQRAAGFLLEKELKYFGKALENPTRPFLAILGGAKVADKIQLIDNLLDKVDSIIIGGGMAFTFKKVLENTEIGDSIFDKAGAEIVPKLMEKAKAKGVEVVLPVDFIIADAFSADANTKTVTDKEGIPAGWQGLDNGPESRKLFAATVAKAKTIVYNGPPGVFEFEKFAAGTKALLDEVVKSSAAGNTVIIGGGDTATVAKKYGVTDKISHVSTGGGASLELLEGKELPGVAFLSEKK [W334Y], the “denaturant midpoint (higher = more stable)” value (“denaturant midpoint” below) (CD, transition: 3) was 0.63 M and 0.82 M. In addition, under “Fluorescence”, the denaturant m value came to 12.4 kcal/mol/M, the “denaturant midpoint” value amounted to 0.62 M and the unfolding free energy is 7.66 kcal/mol.

As for MSLSSKLSVQDLDLKDKRVFIRVDFNVPLDGKKITSNQRIVAALPTIKWVLEHHPRYVVLASHLGRPNGERNEKYSLAPVAKELQSLLGKDVTFLNDCVGPEVEAAVKASAPGSVILLENLRYHIEEEGSRKVDGQKVKASKEDVQKFRHELSSLADVYINDAFGTAHRAHSSMVGFDLPQRAAGFLLEKELKYFGKALENPTRPFLAILGGAKVADKIQLIDNLLDKVDSIIIGGGMAFTFKKVLENTEIGDSIFDKAGAEIVPKLMEKAKAKGVEVVLPVDFIIADAFSADANTKTVTDKEGIPAGWQGLDNGPESRKLFAATVAKAKTIVWNGPPGVFEFEKFAAGTKALLDEVVKSSAAGNTVIIGGGDTATVAKKYGVTDKISHVSTGGGASLELLEGKELPGVAFLSEKK [Y49W], for the setting “CD, transition: 3”, the “ddG of mutation (higher = less stable)” value is 1.77 kcal/mol and 4.83 kcal/mol; the “denaturant midpoint” value was 0.41 M and 1.06 M; the unfolding free energy is 4.31 kcal/mol and 3.54 kcal/mol. Also, under “Fluorescence, transition: 3”, the “denaturant midpoint” value is 0.42 M and 0.92 M; the unfolding free energy was 5.31 kcal/mol and 3.8 kcal/mol.

Consider MSLSSKLSVQDLDLKDKRVFIRVDFNVPLDGKKITSNQRIVAALPTIKWVLEHHPRYVVLASHLGRPNGERNEKYSLAPVAKELQSLLGKDVTFLNDCVGPEVEAAVKASAPGSVILLENLRYHIEEEGSRKVDGQKVKASKEDVQKFRHELSSLADVYINDAFGTAHRAHSSMVGFDLPQRAAGFLLEKELKYFGKALENPTRPFLAILGGAKVADKIQLIDNLLDKVDSIIIGGGMAFTFKKVLENTEIGDSIFDKAGAEIVPKLMEKAKAKGVEVVLPVDFIIADAFSADANTKTVTDKEGIPAGYQGLDNGPESRKLFAATVAKAKTIVWNGPPGVFEFEKFAAGTKALLDEVVKSSAAGNTVIIGGGDTATVAKKYGVTDKISHVSTGGGASLELLEGKELPGVAFLSEKK [Y49W W309Y], for which, where the note is “CD, transition: 3”, the “denaturant midpoint” value was 0.55 M and 0.96 M; the unfolding free energy was 5.93 kcal/mol and 2.34 kcal/mol. For the setting “Fluorescence”, the “ddG of mutation (higher = less stable)” value is -1.46 kcal/mol, the denaturant m value worked out at 12.7 kcal/mol/M, the “denaturant midpoint” value was 0.54 M and the unfolding free energy was 6.84 kcal/mol. Moreover, where the note is “Fluorescence, transition: 3”, the “ddG of mutation (higher = less stable)” value was -0.58 kcal/mol, the denaturant m value amounted to 5.4 kcal/mol/M, the “denaturant midpoint” value amounted to 0.92 M and the unfolding free energy turned out to be 4.94 kcal/mol.

Turning to MSLSSKLSVQDLDLKDKRVFIRVDFNVPLDGKKITSNQRIVAALPTIKYVLEHHPRYVVLASHLGRPNGERNEKYSLAPVAKELQSLLGKDVTFLNDCVGPEVEAAVKASAPGSVILLENLRYHIEEEGSRKVDGQKVKASKEDVQKFRHELSSLADVYINDAFGTAHRAHSSMVGFDLPQRAAGFLLEKELKYFGKALENPTRPFLAILGGAKVADKIQLIDNLLDKVDSIIIGGGMAFTFKKVLENTEIGDSIFDKAGAEIVPKLMEKAKAKGVEVVLPVDFIIADAFSADANTKTVTDKEGIPAGWQGLDNGPESRKLFAATVAKAKTIVWNGPPGVFEFEKFAAGTKALLDEVVKSSAAGNTVIIGGGDTATVAKKYGVTDKISHVSTGGGASLEWLEGKELPGVAFLSEKK [L400W], for the setting “CD, transition: 3”, the “ddG of mutation (higher = less stable)” value was 2.68 kcal/mol and 3.31 kcal/mol; the denaturant m value is 8.1 kcal/mol/M and 5.3 kcal/mol/M; the “denaturant midpoint” value was 0.42 M and 0.95 M; the unfolding free energy is 3.4 kcal/mol and 5.06 kcal/mol. Under “Fluorescence”, the denaturant m value was determined as 10.7 kcal/mol/M, the “denaturant midpoint” value worked out at 0.39 M and the unfolding free energy stood at 4.15 kcal/mol.

With MSLSSKLSVQDLDLKDKRVFIRVDFNVPLDGKKITSNQRIVAALPTIKYVLEHHPRYVVLASHLGRPNGERNEKYSLAPVAKELQSLLGKDVTFLNDCVGPEVEAAVKASAPGSVILLENLRYHIEEEGSRKVDGQKVKASKEDVQKFRHELSSLADVYINDAFGTAHRAHSSMVGFDLPQRAAGFLLEKELKYFGKALENPTRPFLAILGGAKVADKIQLIDNLLDKVDSIIIGGGMAFTFKKVLENTEIGDSIFDKAGAEIVPKLMEKAKAKGVEVVLPVDFIIADAFSADANTKTVTDKEGIPAGYQGLDNGPESRKLFAATVAKAKTIVWNGPPGVFEFEKFAAGTKALLDEVVKSSAAGNTVIIGGGDTATVAKKYGVTDKISHVSTGGGASLELLEGKELPGVAFLSEKK [W309Y], under “CD, transition: 3”, the denaturant m value was 10.9 kcal/mol/M and 5.8 kcal/mol/M; the “denaturant midpoint” value is 0.62 M and 0.84 M; the unfolding free energy is 6.85 kcal/mol and 4.87 kcal/mol. Under “Fluorescence”, the denaturant m value was 14.8 kcal/mol/M, the “denaturant midpoint” value came out at 0.64 M and the unfolding free energy amounted to 9.42 kcal/mol.

Consider MSLSSKLSVQDLDLKDKRVFIRVDFNVPLDGKKITSNQRIVAALPTIKWVLEHHPRYVVLASHLGRPNGERNEKYSLAPVAKELQSLLGKDVTFLNDCVGPEVEAAVKASAPGSVILLENLRYHIEEEGSRKVDGQKVKASKEDVQKFRHELSSLADVYINDAFGTAHRAHSSMVGFDLPQRAAGFLLEKELKYFGKALENPTRPFLAILGGAKVADKIQLIDNLLDKVDSIIIGGGMAFTFKKVLENTEIGDSIFDKAGAEIVPKLMEKAKAKGVEVVLPVDFIIADAFSADANTKTVTDKEGIPAGWQGLDNGPESRKLFAATVAKAKTIVYNGPPGVFEFEKFAAGTKALLDEVVKSSAAGNTVIIGGGDTATVAKKYGVTDKISHVSTGGGASLELLEGKELPGVAFLSEKK [Y49W W334Y], for which, under “CD, transition: 3”, the “denaturant midpoint” value is 0.51 M and 0.91 M; the unfolding free energy is 7.89 kcal/mol and 3.64 kcal/mol. For the same variant, where the note is “Fluorescence, transition: 3”, the denaturant m value was 12.9 kcal/mol/M and 5 kcal/mol/M; the “denaturant midpoint” value is 0.53 M and 0.9 M; the unfolding free energy is 6.85 kcal/mol and 4.45 kcal/mol.

Turning to MSLSSKLSVQDLDLKDKRVFIRVDFNVPLDGKKITSNQRIVAALPTIKYVLEHHPRYVVLASHLGRPNGERNEKYSLAPVAKELQSLLGKDVTFLNDCVGPEVEAAVKASAPGSVILLENLRYHIEEEGSRKVDGQKVKASKEDVQKFRHELSSLADVYINDAFGTAHRAHSSMVGFDLPQRAAGFLLEKELKYWGKALENPTRPFLAILGGAKVADKIQLIDNLLDKVDSIIIGGGMAFTFKKVLENTEIGDSIFDKAGAEIVPKLMEKAKAKGVEVVLPVDFIIADAFSADANTKTVTDKEGIPAGWQGLDNGPESRKLFAATVAKAKTIVWNGPPGVFEFEKFAAGTKALLDEVVKSSAAGNTVIIGGGDTATVAKKYGVTDKISHVSTGGGASLELLEGKELPGVAFLSEKK [F195W], for the setting “CD, transition: 3”, the “ddG of mutation (higher = less stable)” value was determined as 0.64 kcal/mol, the denaturant m value turned out to be 10.2 kcal/mol/M, the “denaturant midpoint” value was 0.53 M and the unfolding free energy stood at 5.44 kcal/mol. Besides, for the setting “Fluorescence, transition: 3”, the “denaturant midpoint” value is 0.52 M and 0.91 M; the unfolding free energy is 6.3 kcal/mol and 2.68 kcal/mol.

For MSLSSKLSVQDLDLKDKRVFIRVDFNVPLDGKKITSNQRIVAALPTIKYVLEHHPRYVVLASHLGRPNGERNEKYSLAPVAKELQSLLGKDVTFLNDCVGPEVEAAVKASAPGSVILLENLRWHIEEEGSRKVDGQKVKASKEDVQKFRHELSSLADVYINDAFGTAHRAHSSMVGFDLPQRAAGFLLEKELKYFGKALENPTRPFLAILGGAKVADKIQLIDNLLDKVDSIIIGGGMAFTFKKVLENTEIGDSIFDKAGAEIVPKLMEKAKAKGVEVVLPVDFIIADAFSADANTKTVTDKEGIPAGWQGLDNGPESRKLFAATVAKAKTIVWNGPPGVFEFEKFAAGTKALLDEVVKSSAAGNTVIIGGGDTATVAKKYGVTDKISHVSTGGGASLELLEGKELPGVAFLSEKK [Y123W], for the setting “CD”, the “ddG of mutation (higher = less stable)” value is 1.29 kcal/mol, the denaturant m value was 13.7 kcal/mol/M, the “denaturant midpoint” value amounted to 0.42 M and the unfolding free energy came to 5.79 kcal/mol. In addition, under “CD, transition: 3”, the “ddG of mutation (higher = less stable)” value was determined as 5.65 kcal/mol, the denaturant m value stood at 3.2 kcal/mol/M, the “denaturant midpoint” value was 0.86 M and the unfolding free energy was 2.72 kcal/mol. For the same variant, where the note is “Fluorescence, transition: 3”, the “ddG of mutation (higher = less stable)” value is 0.57 kcal/mol and 0.91 kcal/mol; the “denaturant midpoint” value is 0.4 M and 0.91 M; the unfolding free energy was 4.81 kcal/mol and 3.45 kcal/mol.

These data come from FireProtDB (doi:10.1021/bi00042a027).
